{
  "source": "patent US20160177324A1",
  "about": "“NOVEL PROTEIN AND GENE RELATED TO FLAVONOID O-METHYLTRANSFERASE (FOMT) AND THEIR USES THEREFORE” (INSTITUTE OF BOTANY, THE CHINESE ACADEMY OF SCIENCES, priority 2013, published 2016)",
  "key": {"[1]": {"system": "Fragaria×ananassa cv. 'Hongyan' fruits", "test": "Transient expression in strawberry fruit (coexpression with PAP1)", "format": "in vivo", "method": "A strawberry cultivar, Fragaria×ananassa cv. ‘Hongyan’ (The Beijing Agricultural Technology Extension Station) with fruits turning red were chosen as subjects. A single colony of Agrobacterium strain EHA105 with pBI121-FOMT construct was inoculated, and the pellet were centrifuged and washed with infiltration buffer (50 mM Mes, pH 5.6, 2 mM Na3PO4, 0.5% glucose (w/v), and 100 mM acetosyringone) according to Hoffmann et al. (Hoffmann, T., G. Kalinowski, and W. Schwab, RNAi-induced silencing of gene expression in strawberry fruit (Fragaria×ananassa) by agroinfiltration: a rapid assay for gene function analysis. Plant Journal, 2006. 48(5): p. 818-826.). The bacterial suspension was diluted with infiltration buffer to adjust the inoculum concentration to OD600 0.1-0.3. A syringe infiltration method was used to transient transform strawberry fruits. The infiltrated fruits were harvested after four days for anthocyanin content analyses as follow. […] The MS conditions were listed as follow: negative-ion (NI) mode; capillary voltage of 3.5 kV; a nebulization pressure of 241.3 kPa; and a gas (N2) temperature of 350° C. with flow rate of 6.0 L min^−1 Capillary offset voltage was 77.2 V. MS spectra were recorded over the range from m/z 50-1000."}, "[2]": {"test": "Comparison of activities among recombinant polypeptides with site mutagenesis", "format": "biochemical", "settings": "Cy3G5G as substrate", "method": "The reaction system was according to Hugueney et al. with some modification (Hugueney, P., et al., A novel cation-dependent O-methyltransferase involved in anthocyanin methylation in grapevine. Plant Physiology, 2009. 150(4): p. 2057-2070.). Purified recombinant FOMT (2 μg) was assayed in a final volume of 200 μL containing 200 μM SAM, 1 mM MgCl2, 14 mM β-mercaptoethanol, 100 mM Tris, pH 7.5, and 20 μM flavonoid substrates. Incubation was performed at 35° C. and stopped with 200 μL methanol containing 2% formic acid. For enzyme kinetic studies, purified FOMT was incubated based on the above condition with the exception that a range of substrate concentrations from 5 to 200 μM were used for Km determination. Reaction product was analyzed by a Dionex HPLC system (Sunnyvale, Calif.), equipped with a P680 HPLC pump, an UltiMate 3000 autosampler, a TCC-100 thermostated column compartment and a Dionex PDA100 photodiode array detector. The analytical column was C18 column of ODS 80Ts QA (150 mm×4.6 mm, 5 μm i.d., Tosoh, Tokyo) protected with a C18 guard cartridge (Shanghai ANPEL Scientific Instrument, Shanghai). The following solvent and gradient were used: A, 10% aqueous formic acid; B, methanol; constant gradient from 10 to 36% B within 15 min and back to 10% B in 3 min; the flow rate was 0.8 mL min^−1; Column temperature was maintained at 35° C.; 20 μL of analyte was injected. Chromatograms were obtained at 525 nm for anthocyanins and 350 nm for other flavonoids, and photodiode array spectra were recorded from 200 to 800 nm. Km and Vmax values were calculated from Lineweaver-Burk plots.\nTo validate the key amino acid responsible for the activity, site-directed mutagenesis was carried out using the PCR method and Fast Mutagenesis System (TransGen), and primer sequences used are given in Table 1. Four constructs were built following the template sequence of PtFOMT, named as PtFOMT-G13E, PtFOMT-T85A, PtFOMT-R87L, and PtFOMT-T205R. The corresponding recombinant proteins were purified and the catalytic activities were examined. […] The other mutants have no significant improved activity compared with PtFOMT. The leucine at 87-position is a vital residue for the methyltransferase activity."}},
  "data": [
    {"molecule": "PsFOMT: flavonoid O-methyltransferase from tree peony Paeonia suffruticosa cv. 'Gunpohden', SEQ ID NO: 3; recombinant MBP fusion protein (protein, listed as Paeonia suffruticosa, MBP fusion, recombinant MBP fusion protein) MAESDRKGILKSEALLKYILETSVYPREHEQLKQLRQATVDKYKYWSVMNVPADEGQFLSMLLKIMNAKKTIEVGVFTGYSLLTAALALPTDAKITAIDPDGEAYETGLPFIKKAGVEHKINYIQADAMSVLDDLVTNGKEEGSFDFAFVDADKENYAKYHEPLMKLVKIGGIIGYDNTLWFGSVALSDGDEMKEFQEKGRRIFREFNTFLAADPRIELAHISIGDGLALCRRLY", "values": [
      {"measurement": "proportion of methylated products (Pn type) to precursors (Cy type)", "setting": "[1]", "value": "more than that of PtFOMT"},
      {"measurement": "Activity (%), portion of recombinant protein activity compared with PsFOMT", "setting": "[2]; Incubation 5 min", "value": 100, "unit": "%"},
      {"measurement": "Activity (%), portion of recombinant protein activity compared with PsFOMT", "setting": "[2]; Incubation 30 min", "value": 100, "unit": "%"}
    ]}
  ]
}
